Results as given in PMC2275097.
Read-outs that look alike come from different tables or passages of the source.

Key:
[1] = biological target: T1, hLon (human Lon protease) (Homo sapiens, UniProt P36776 68-959); test: ITC
T1 sequence: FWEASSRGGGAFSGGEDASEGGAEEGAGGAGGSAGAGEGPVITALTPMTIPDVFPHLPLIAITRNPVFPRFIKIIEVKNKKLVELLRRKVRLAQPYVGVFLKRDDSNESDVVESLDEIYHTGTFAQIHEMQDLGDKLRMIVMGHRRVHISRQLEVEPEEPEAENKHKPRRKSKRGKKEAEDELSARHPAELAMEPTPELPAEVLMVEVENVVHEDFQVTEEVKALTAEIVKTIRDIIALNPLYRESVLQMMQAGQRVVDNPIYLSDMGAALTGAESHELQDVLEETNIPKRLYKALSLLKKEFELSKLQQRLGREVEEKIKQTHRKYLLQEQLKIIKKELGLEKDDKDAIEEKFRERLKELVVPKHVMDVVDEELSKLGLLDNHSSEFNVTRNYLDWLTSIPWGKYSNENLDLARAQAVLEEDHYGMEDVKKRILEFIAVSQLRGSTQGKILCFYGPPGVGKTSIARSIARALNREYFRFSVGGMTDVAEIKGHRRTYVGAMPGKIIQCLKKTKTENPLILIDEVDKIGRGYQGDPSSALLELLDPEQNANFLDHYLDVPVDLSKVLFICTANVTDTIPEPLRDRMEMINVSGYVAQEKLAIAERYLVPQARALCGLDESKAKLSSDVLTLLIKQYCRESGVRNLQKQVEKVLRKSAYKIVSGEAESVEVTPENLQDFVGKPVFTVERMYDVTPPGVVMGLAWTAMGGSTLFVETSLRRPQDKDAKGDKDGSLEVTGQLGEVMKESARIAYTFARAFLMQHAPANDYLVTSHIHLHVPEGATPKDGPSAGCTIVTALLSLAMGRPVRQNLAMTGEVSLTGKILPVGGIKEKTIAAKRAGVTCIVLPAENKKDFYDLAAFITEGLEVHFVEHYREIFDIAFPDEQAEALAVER

[2] = biological target: T1, hLon (human Lon protease); test: ITC; remark: listed apart in the source
[3] = biological target: T1, hLon (human Lon protease); test: ITC; remark: listed apart in the source
[4] = biological target: T1, hLon (human Lon protease); test: ITC; remark: listed apart in the source
[5] = biological target: T1, hLon (human Lon protease); test: ITC; remark: listed apart in the source
[6] = biological target: T1, hLon (human Lon protease); test: competition
[7] = biological target: T1, hLon (human Lon protease); test: ITC; remark: listed apart in the source

Row | Binder | Ka [1] | Kd [2] | Ka [3] | Ka [4] | Ka [5] | binding result [6] | Ka [7]
1 | TGGGGGGT (structured_DNA) [TG6T] | 1.24 ± 0.58 10^5 M^-1 | 7.35 µM | 1.36 ± 0.22 10^5 M^-1 | 1.35 ± 0.89 10^5 M^-1 | 3.48 ± 0.36 10^5 M^-1 | – | –
2 | GTGTTAGTTGGGGGGTGA (structured_DNA) [LSPas18] | – | – | – | – | – | binds | –
3 | AATAATGTGTTAGTTGGGGGGTGA (structured_DNA) [LSPas] | – | – | 3.03 ± 0.83 10^5 M^-1 | 2.45 ± 0.43 10^5 M^-1 | 2.6 ± 0.72 10^5 M^-1 | – | 2.11 ± 0.11 10^5 M^-1
